We go through 39 sequences from the supplement of paper PMC7877785.

± gives the uncertainty stated by the source.

This data set is described as follows: self-splicing fitness, log relative to wild type (ln ratio); higher = more splicing; Tetrahymena group I intron in knt gene, E. coli kanamycin selection, DiMSum; sequences stand for … in CUCUCU…GGAGGGAAAAGUUAUCAGGCAUGCACCUGGUAGCUAGUCUUUAAACCAAUAGAUUGCAUCGGUUUAAAAGGCAAGACCGUCAAAUUGCGGGAAAGGGGUCAACAGCCGUUCAGUACCAAGUCUCAGGGGAAACUUUGAGAUGGCCUUGCAAAGGGUAUGGUAAUAAGCUGACGGACAUGGUCCUAACCACGCAGCCAAGUCCUAAGUCAACAGAUCUUCUGUUGAUAUGGAUGCAGUUCACAGACUAAAUGUCGGUCGGGGAAGAUGUAUUCUUCUCAUAAGAUAUAGUCGGACCUCUCCUUAAUGGGAGCUAGCGGAUGAAGUGAUGCAACACUGGAGCCGCUGGGAACUAAUUUGUAUGCGAAAGUAUAUUGAUUAGUUUUGGAGUACUCGUGGUCG
Summed up:
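Six replicate transformations of E. coli BL21(DE3) with a pET-22b(+) library were grown overnight at 37°C or 30°C. The library randomised all eight P1ex-region intron nucleotides, the intron lying in the knt kanamycin-resistance gene, and plates were LB agar with or without 25 μg/mL kanamycin plus 100 μg/mL carbenicillin, 50 μM IPTG and 0.2% rhamnose. Pooled colonies were amplicon-sequenced on an Illumina HiSeq 2500, and fitness is the DiMSum error-weighted combination of wild-type-normalised replicate fold changes, kanamycin versus none.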

With CUAUAGCAAUAUUACGGGAG, the “self-splicing fitness (ln)” value (30 °C) was -2.58 ± 0.27 and the “self-splicing fitness (ln)” value (37 °C) was -1.87 ± 0.28.
Take ACUUAGCAAUAUUACGGAUU: the “self-splicing fitness (ln)” value reads like this: (30 °C) -1.18 ± 0.12; (37 °C) -0.862 ± 0.14.
On the same counts, the results for CAUAAGCAAUAUUACGAUCU are -2.67 ± 0.23 and -1.85 ± 0.24.
Turning to GUCUAGCAAUAUUACGUGCU, the “self-splicing fitness (ln)” value is, setting by setting: (30 °C) -3.08 ± 0.23; (37 °C) -1.87 ± 0.39.
Consider CCGUAGCAAUAUUACGUAGA, for which the “self-splicing fitness (ln)” value was -3.28 ± 0.22 (30 °C) and -1.41 ± 0.13 (37 °C).
As to GGAGAGCAAUAUUACGACGG, the “self-splicing fitness (ln)” value is -2.35 ± 0.29 (30 °C) and -2.17 ± 0.36 (37 °C).
Consider CACUAGCAAUAUUACGGCCA, for which the “self-splicing fitness (ln)” value (30 °C) is -3.1 ± 0.23.
For the sequence CGGCAGCAAUAUUACGGCUU, the “self-splicing fitness (ln)” value is, setting by setting: (30 °C) -0.457 ± 0.065; (37 °C) 0.278 ± 0.095.
On the same counts, the results for AUGUAGCAAUAUUACGAGUC are -2.95 ± 0.23 and -3.28 ± 0.4.
As to AACCAGCAAUAUUACGCAAA, the “self-splicing fitness (ln)” value was -0.829 ± 0.1 (30 °C) and -0.805 ± 0.11 (37 °C).
For GGAUAGCAAUAUUACGACAA, in that order: -0.923 ± 0.12 and -0.865 ± 0.14.
As to GAUCAGCAAUAUUACGCGCG, the “self-splicing fitness (ln)” value is -0.222 ± 0.14 (30 °C) and 0.0103 ± 0.15 (37 °C).
For AGCCAGCAAUAUUACGGAUG, in that order: -1.85 ± 0.1 and -0.824 ± 0.12.
As for UAGUAGCAAUAUUACGAUAC, the “self-splicing fitness (ln)” value (30 °C) is -2.73 ± 0.44.
As to AUCCAGCAAUAUUACGCGAA, the “self-splicing fitness (ln)” value reads like this: (30 °C) -0.821 ± 0.054; (37 °C) -0.468 ± 0.07.
For AUAGAGCAAUAUUACGGUGC, the “self-splicing fitness (ln)” value (30 °C) was -1.96 ± 0.15 and the “self-splicing fitness (ln)” value (37 °C) is -2.21 ± 0.46.
Take CCGAAGCAAUAUUACGCGUC: the “self-splicing fitness (ln)” value was -3.28 ± 0.25 (30 °C) and -3.2 ± 0.32 (37 °C).
On the same counts, the results for GUCUAGCAAUAUUACGCUCG are -0.688 ± 0.23 and -0.634 ± 0.27.
On to AGUAAGCAAUAUUACGACGC, for which the “self-splicing fitness (ln)” value is, setting by setting: (30 °C) -0.403 ± 0.15; (37 °C) 0.541 ± 0.17.
UACUAGCAAUAUUACGUGUC: the “self-splicing fitness (ln)” value reads like this: (30 °C) -3.38 ± 0.17; (37 °C) -2.79 ± 0.15.
As for GUGUAGCAAUAUUACGCUCA, the “self-splicing fitness (ln)” value (30 °C) was -0.291 ± 0.21 and the “self-splicing fitness (ln)” value (37 °C) worked out at 0.47 ± 0.33.
GGAGAGCAAUAUUACGGUGG: the “self-splicing fitness (ln)” value reads like this: (30 °C) -3.5 ± 0.28; (37 °C) -2.25 ± 0.23.
On to AAAAAGCAAUAUUACGCGUA, for which the “self-splicing fitness (ln)” value (30 °C) was -1.61 ± 0.083 and the “self-splicing fitness (ln)” value (37 °C) was -0.153 ± 0.08.
As for CGGUAGCAAUAUUACGCCAU, the “self-splicing fitness (ln)” value runs as follows: (30 °C) -1.58 ± 0.32; (37 °C) -2.46 ± 0.39.
On the same counts, the results for UUAAAGCAAUAUUACGGGGC are -3.68 ± 0.25 and -2.51 ± 0.32.
Turning to CACAAGCAAUAUUACGUGUG, the “self-splicing fitness (ln)” value (30 °C) was -3.65 ± 0.12 and the “self-splicing fitness (ln)” value (37 °C) is -2.69 ± 0.12.
As to GGUAAGCAAUAUUACGUCGC, the “self-splicing fitness (ln)” value is -1.17 ± 0.13 (30 °C) and -0.683 ± 0.13 (37 °C).
Regarding GGAUAGCAAUAUUACGAAGC, the “self-splicing fitness (ln)” value (30 °C) was -2.6 ± 0.48.
As to CGCAAGCAAUAUUACGCAGC, the “self-splicing fitness (ln)” value (37 °C) was -2.35 ± 0.27.
With ACGUAGCAAUAUUACGUUGG, the “self-splicing fitness (ln)” value by setting is: (30 °C) -4.55 ± 0.31; (37 °C) -2.85 ± 0.25.
Take CCUAAGCAAUAUUACGGGCA: the “self-splicing fitness (ln)” value reads like this: (30 °C) -3.62 ± 0.25; (37 °C) -2.85 ± 0.24.
On to AUUCAGCAAUAUUACGCGGC, for which the “self-splicing fitness (ln)” value (30 °C) is -3.26 ± 0.22 and the “self-splicing fitness (ln)” value (37 °C) was -2.43 ± 0.22.
In the case of AAAUAGCAAUAUUACGAACA, the “self-splicing fitness (ln)” value is, setting by setting: (30 °C) -0.981 ± 0.14; (37 °C) -0.0486 ± 0.12.
Consider ACUGAGCAAUAUUACGGGCG, for which the “self-splicing fitness (ln)” value by setting is: (30 °C) -2.3 ± 0.15; (37 °C) -1.01 ± 0.18.
For CAACAGCAAUAUUACGCCAG, the “self-splicing fitness (ln)” value is -1.4 ± 0.11 (30 °C) and -0.809 ± 0.14 (37 °C).
Consider GAGAAGCAAUAUUACGAUCG, for which the “self-splicing fitness (ln)” value (30 °C) was -0.334 ± 0.094 and the “self-splicing fitness (ln)” value (37 °C) is -0.068 ± 0.14.
As for CGAGAGCAAUAUUACGUCUG, the “self-splicing fitness (ln)” value is, setting by setting: (30 °C) -1.33 ± 0.24; (37 °C) -1.31 ± 0.17.
As for UACAAGCAAUAUUACGCCAA, the “self-splicing fitness (ln)” value by setting is: (30 °C) -1.74 ± 0.18; (37 °C) -1.07 ± 0.15.
Turning to UGUGAGCAAUAUUACGCGGA, the “self-splicing fitness (ln)” value (30 °C) is -2.4 ± 0.2 and the “self-splicing fitness (ln)” value (37 °C) was -1.31 ± 0.21.
